Measurements as given in patent publication US20190241648A1 (STATEN BIOTECHNOLOGY B V, published 2019).

B1: 8B7 scFv-Fc (Fc fusion)
VH: EVQVQESGPGLVKPSQTLSLTCTVSGASITNRRYAWTWIRQPPGKGLEWMGVIVYDGNTHVSPSLRSRTSISRDTSKNQFSLQLSSLTPEDTAVYYCARVLLLRDPLSLDYWGQGTQVTVSS
VL: SSALTQPPSMSGTLGKTLTISCAGTSSDIGAYNFVSWYQQLPGTAPKLLIYDIDKRASGIPDRFSGSKSGNTASLSISGLQSEDEADYYCAAYGSRDNVVFGGGTHLTVL
notes: scFv-Fc format
B2: 5A7 scFv-Fc (Fc fusion)
VH: EVQVQESGPGLVKPSQTLSLTCTVSGASITNRRYAWTWIRQPPGKGLEWMGVIVYDGNTHVSPSLRSRTSISRDTSKNQFSLQLSSLTPEDTAVYYCARVLLLRDPLSLDYWGQGTQVTVSS
VL: SSALTQPPSMSGTLGKTLTISCAGTSSDIGAYNFVSWYQQLPGTAPKLLIYDIDKRASGIPDRFSGSKSGNTASLSISGLQSEDEADYYCAAYGSRDNVVFGGGTHLTVL
notes: scFv-Fc format
B3: 7A9 scFv-Fc (Fc fusion)
VH: EVQVQESGPGLVKPSQTLSLTCTVSGASITNRRYAWTWIRQPPGKGLEWMGVIVYDGNTHVSPSLRSRTSISRDTSKNQFSLQLSSLTPEDTAVYYCARVLLLRDPLSLDYWGQGTQVTVSS
VL: SSALTQPPSMSGTLGKTLTISCAGTSSDIGAYNFVSWYQQLPGTAPKLLIYDIDKRASGIPDRFSGSKSGNTASLSISGLQSEDEADYYCAAYGSRDNVVFGGGTHLTVL
notes: scFv-Fc format
B4: 11H1 scFv-Fc (Fc fusion)
VH: ELQLVESGGGLVQPGGSLRLSCAASGFTFSSYSMRWVRQAPGKGLEWLSSIKSDGSITSYADSVKGRFTMSRDNAKNTLYLQMNSLKSEDTAMYYCTNQGYINWGQGTQVTVSS
VL: ATMLTQSPGSLTIVPGESASISCRASQSLIHSAGKTYFYWLLQKPGQRPQLLIYQVSNRESGVPDRFTGSGSGTDFTLKISGVKAEDAGVYYCAQGTYNPKTFGQGTKLEIK
notes: scFv-Fc format
B5: 12C12 scFv-Fc (Fc fusion)
VH: EVQVQESGPGLVKPSQTLSLTCTVSGGSITTSYYAWTWIRQPPGKGLEWVGAIVYDGSTFYSPSLKSRTSISRDTSKSQFSLQLSSVTPEDTAVYYCARSYGLGLYDLWGQGTQVTVSS
VL: QAVLTQPPSVSGSPGQKFTISCTGSSSNIGDNYVNWYQHLPGTAPKLLIYSNSNRASGVPDRFSGSKSGSSASLTITGLQAEDEADYYCSSWDDSLSGVVFGGGTHLTVL
B6: 12E12 scFv-Fc (Fc fusion)
VH: EVQLVESGGDLVQPGGSLRVSCAASGLTFSNIYMSWVRQAPGKGLEWVSAINTAGTVTYYADSVKGRFTISRDNAKNTLYLQMNSLKPEDTAHYYCTTGEVDWGKGTLVTVSS
VL: QTVVTQEPSLSVSPGGTVTLTCGLSSGSVTSVTYPGWYQQKPGQAPRTLIYNTNSRFSGVPNRFSGSISGNKAALTITGALPEDEADYYCSVYIGGGIYPAVFGGGTHLTVL
B7: 8B4 scFv-Fc (Fc fusion)
VH: ELQLVESGGGLVQPGGSLRLSCAASGFTFSNAYLYWVRQVPGKGLEWVSGINPAGDGRAYATSVKGRFTISRDNAKNTLYLQMNTLESDDTAVYYCATASRVVAYDSWGQGTQVTVSS
VL: EIVLTQSPSSVTASVGEKVTINCKSSQSVESGSDQKSYLNWYQQRPGQSPRLLIYYASTQESGIPDRFSGSGSTTDFTLTISSVQPEDAAVYYCQQAYSAPFTFGQGTKVELK
B8: 13C7 scFv-Fc (Fc fusion)
VH: QLQLVESGGGLVQPGGSLRLSCAASGGTFSRYYMSWVRQAPGKGLEWVSSIYKDGSNTYYADSVKGRFTISRDNAKNTLYLQMNSLKSEDTAVYYCAKALRAEYDYWGQGTQVTVSS
VL: NFMLTQPPSVSGTLGKTVTISCAGTSSDIGGYNYVAWYQQLPGTAPKLLISEVNKRASGIPDRFSGSKSGNTASLSISGLQSEDEADYYCASYRSSNSYVFGGGTKLTVL
B9: 12D1 scFv-Fc (Fc fusion)
VH: QLQLVESGGGLVQPGGSLRLSCAASGFTFGTYSMRWVRQVPRKALEWVSSISTDGGGTAYRDSVKGRFTISRDNAKNTLYLQMNNLKPEDTAIYYCVIAGYSDWGQGTQVTVSS
VL: SALDVVLTQTPGSLSVVPGESASISCKTSQSLTHSDGKTYLYWLLQKPGQSPQRLIYQVSNRGSGVPDRFTGSGSGTDFTLKISGVKAEDAGMYYCAQATYYPHTFGSGSRLEIER
B10: 5E5 IgG1 (antibody, V domains shown)
VH: QLQLVESGGGLVQPGGSLRLSCAASGFTFGTYSMRWVRQVPRKALEWVSSISTDGGGTAYRDSVKGRFTISRDNAKNTLYLQMNNLKPEDTAIYYCVIAGYSDWGQGTQVTVSS
VL: ATMLTQSPGSLSVVPGESASISCKTSQGLVHSDGKTYFYWFLQKPGQSPQQLIYQVSNRASGVPDRFTGSGSGTDFTLKISGVKAEDAGVYYCAQGTYYPHTFGSGTRLEIK
B11: 14C7 scFv-Fc (Fc fusion)
VH: QVQVQESGPGLVKPSQTLSLTCTVSGGSITTNSYYWSWIRQPPGKGLEWMGAIDYSGDTYYSPSLKSRTSISRDTSKNQFTLQLTSVTPEDTAVYYCVSRIPTGEYWGQGTQVTVSS
VL: QTVVTQEPSLSVSPGGTVTLTCGLNSGSVTSSNYPDWYQQTPGQAPRLLIYNTNSRHSGVPSRFSGSISGNKAALTITGAQPEDEADYYCALYMGSDSVVFGGGTHLTVL
B12: 12C3 scFv-Fc (Fc fusion)
VH: ELQLVESGGGLVQPGGSLRLSCAASGFTFSSYSMFWVRQSPGKGLERVSGINGGGDRSNYADSVRDRFTISRDNAKNTLYLQMNSLKSEDTAVYYCVIQGYAYWGQGTQVTVSS
VL: DVVLTQTPASLSVVPGESASISCKASQSLVHSDGKTYLYWLLQKPGQSPQRLIYQTSNRGSGVPDRFTGSGSGTDFTLDISGVKAEDAGVYYCAQATYSPHTFGSGTRLEIK
B13: 12D4 scFv-Fc (Fc fusion)
VH: QLQLVESGGGLVQPGGSLRVSCAASGFTFSSSNMRWVRQVSGKGLEWVSTISPDGGKTLYADSVKGRFTISRDNAKNTLHLQMVSLKPEDTALYYCVKAGYDYWGQGTQVTVSS
VL: ATMLTQSPGSLSVVPGESASISCKASQSLVHSDGKTYLYWLLQKPGQSPQRLIYQVSNQGSGVPDRFTGSGSGTDFTLKISGVKAEDAGVYYCAQATYAPHSFGSGTRLEIK
B14: 14G4 scFv-Fc (Fc fusion)
VH: QVQLVESGGGLVQPGGSLRLSCAASGFAFSRYTMNWVRQAPGKGLEWLSAISPDGGKTIDADSVKGAFASSRDNTMNTLYLDMNSLKPEDAAVYYCVAGHNMDYWGKGILVTVSS
VL: DVVLTQTPGSLSVVPGESASISCKASQSLVHSDGKTYLYWLLQKPGQSPQRLIYQVSNQGSGVPDRFTGSGSGTDFTLKISGVKAEDAGVYYCAQATYTPRTFGQGTTLEVK
B15: 14C4 scFv-Fc (Fc fusion)
VH: QLQLVESGGGLVQPGGSLRLSCAASGFTFGNYDMSWVRQAPGKGPEWVSVINSDGDGTYYVDSVKGRFTISRDNAKNTLYLQMNSLKPEDRAVYYCAIANLGLWGQGTLVTVSS
VL: ATMLTQSPGSLSVVPGESASISCKATQSLVHSDGKTYLSWLLQKPGQSPQRLIYQVSNRGSGVPDRFTGSGSGTDFTLKISGVKAEDAGVYYCAQAPYWTFGQGTKLEIK
B16: 12A3 scFv-Fc (Fc fusion)
VH: ELQLVESGGGLVQSGGSLRLSCAASGFTFSNYAMRWVRQAPGGRLEWVSSINIAGSSVVYADSVKGRFTISRDNAKNTLYLQMNSLKSEDTAVYYCAMQGFVYWGQGTQVTVSS
VL: DVVLTQTPGSLSVVPGESANISCKAGRSLVHSDGRTYLYWLLQKPGQSPQRLIYQVSNRSSGVPDRFTGSGSGTDFTLKITGVKAEDAGVYYCAQGTYYPVTFGQGTKVELK
B17: 13G7 IgG1 (antibody, V domains shown)
VH: QVQLQESGPGLVKPSQTLSLTCTVSGGSISTTAPAWGWIRQSPGKGLDWMAVIAFDGSAYYSPSLKSRTLISRDTSKNQFSLQLSSVTPEDTAVYYCARLGGRNYPPYVELWGQGTLVTVSS
VL: QPVLTQPPALSVTLGQTAKITCQGGSLRVSYAHWYQQKPGQAPVLVSYDDDSRPSGIPERFSGSGSGATATLTISGAQAEDEGDYYCQSADSSGDNWVFGGGTHLTVL
B18: 13G7 scFv-Fc (Fc fusion)
VH: QVQLQESGPGLVKPSQTLSLTCTVSGGSISTTAPAWGWIRQSPGKGLDWMAVIAFDGSAYYSPSLKSRTLISRDTSKNQFSLQLSSVTPEDTAVYYCARLGGRNYPPYVELWGQGTLVTVSS
VL: QPVLTQPPALSVTLGQTAKITCQGGSLRVSYAHWYQQKPGQAPVLVSYDDDSRPSGIPERFSGSGSGATATLTISGAQAEDEGDYYCQSADSSGDNWVFGGGTHLTVL

These binders were tested against T1, human ApoC3 (huApoC3), native protein purified from human serum (human, UniProt P02656 21-99) (assay: SPR Biacore, huApoC3 on chip, scFv-Fc as analyte).
T1 construct: Athens Research and Technology; randomly biotinylated in some assays; also called Apolipoprotein C3
T1 sequence (P02656 21-99): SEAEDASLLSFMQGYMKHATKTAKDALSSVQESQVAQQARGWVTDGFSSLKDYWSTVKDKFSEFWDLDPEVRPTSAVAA
Description: This example describes characterization of anti-ApoC3 antibodies regarding their affinity to ApoC3 under neutral conditions using an SPR-based assay using a Biacore 3000 instrument (Biacore AB). Native huApoC3 protein was immobilized on a CM5 chip. The immobilization was performed in accordance with the method provided by Biacore using the NHS/EDC kit (Biacore AB): after activation of the chip, a solution of 60 μg/ml of human ApoC3 in 10 mM acetate buffer with pH of 4.5 was prepared and injected until the surface density reached approximately 1000 RU. Capturing of the human ApoC3 on the streptavidin coated chip (SA) was performed at pH 7.4 in accordance with a method provided by Biacore via injection of 20 μl 10 μg/ml biotinylated human ApoC3 thereby reaching the surface density of approximately 500 RU. […] After the dissociation, the flow cell surfaces were regenerated by injecting 10 μl of 10 mM […]/1 M NaCl and 10 μl of 10 mM glycine at pH1.5. The resulting sensorgrams were analyzed using the BIAevaluation 4.1 software using Langmuir 1:1 binding model to derive binding kinetics. Data was zero adjusted and the reference cell sensorgrams were subtracted.
A number of scFv-Fc antibodies were examined in this assay. The association rate (ka), dissociation rate (kd), analyte binding capacity (Rmax), equilibrium association constant (KA) and equilibrium dissociation constant (KD) of these antibodies are shown in Table 5.

With B1 as the binder, how does the Ka read?
The Ka was 4.16e+09 M⁻¹.

And the Kd?
The Kd was 0.24 nM.

What about the koff of the same binder?
The koff was 0.000675 s⁻¹.

And the kon?
The kon was 2.81e+06 M⁻¹ s⁻¹.

B2 was tested. Which Ka did it give?
The Ka was 2.08e+09 M⁻¹.

And the Kd?
Its Kd is 0.48 nM.

What about the koff of the same binder?
The koff was 0.000647 s⁻¹.

What about the kon of the same binder?
Its kon is 1.35e+06 M⁻¹ s⁻¹.

How did the Ka turn out when B3 was run?
The Ka was 3.87e+09 M⁻¹.

And the Kd?
The Kd was 0.258 nM.

And the koff?
Its koff is 0.00067 s⁻¹.

And the kon?
Its kon is 2.59e+06 M⁻¹ s⁻¹.

Which results are given for B4?
Ka: 5.89e+08 M⁻¹; Kd: 1.7 nM; koff: 0.000207 s⁻¹; kon: 122000 M⁻¹ s⁻¹

These binders were tested against T1, human ApoC3 (huApoC3), native protein … (assay: cell-based or functional assay).

With B5 as the binder, how does the “attenuation of the ability of ApoC3 to inhibit VLDL uptake by HepG2 cells” value read?
Its value is about 100%.

With B6 as the binder, how does the “attenuation of the ability of ApoC3 to inhibit VLDL uptake by HepG2 cells” value read?
The value was about 40%.

B7 was tested. Which “attenuation of the ability of ApoC3 to inhibit VLDL uptake by HepG2 cells” value did it give?
Its value is about 60%.

With B8 as the binder, how does the “attenuation of the ability of ApoC3 to inhibit VLDL uptake by HepG2 cells” value read?
Its value is about 95%.

With B9 as the binder, how does the “attenuation of the ability of ApoC3 to inhibit VLDL uptake by HepG2 cells” value read?
The value was about 60%.

With B10 as the binder, how does the “EC50, attenuation of ApoC3-mediated LPL inhibition (NEFA production)” value read?
Its value is over 5000 nM.

B11 was tested. Which “attenuation of the ability of ApoC3 to inhibit VLDL uptake by HepG2 cells” value did it give?
The value was about 100%.

With B12 as the binder, how does the “attenuation of the ability of ApoC3 to inhibit VLDL uptake by HepG2 cells” value read?
Its value is about 85%.

For B13, which “attenuation of the ability of ApoC3 to inhibit VLDL uptake by HepG2 cells” value is on record?
The value was about 60%.

B14 was tested. Which “attenuation of the ability of ApoC3 to inhibit VLDL uptake by HepG2 cells” value did it give?
The value was about 100%.

For B15, which “attenuation of the ability of ApoC3 to inhibit VLDL uptake by HepG2 cells” value is on record?
Its value is about 60%.

B16 was tested. Which “attenuation of the ability of ApoC3 to inhibit VLDL uptake by HepG2 cells” value did it give?
Its value is about 100%.

How did the “EC50, attenuation of ApoC3-mediated LPL inhibition (NEFA production)” value turn out when B17 was run?
The value was about 3000 nM.

B18 was tested. Which “attenuation of the ability of ApoC3 to inhibit VLDL uptake by HepG2 cells” value did it give?
The value was about 100%.
